Experiment: yeast display, Sf9 membrane polyspecificity reagent, FACS + sequencing; frameworks hold sequencing errors
In short: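 In a synthetic yeast display library (Saccharomyces cerevisiae BJ5465), nanobody expression was induced with galactose for 36–48 hours. FACS gates were set low and high (top ~1%) using anti-HA fluorescence for expression and streptavidin fluorescence for binding of the Sf9 membrane reagent. Each polyreactivity label is drawn from the gate of origin.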

Row | Sequence | polyreactivity (PSR sort gate)
1 | QVQLVESGGGLVQAGRSLRLSCPAYGFTFVINDMGWYRQAPGKEREFVADITSGGDTYYADSVKGRFTISRDNAKNTVYLQMNSLKPEDTAVFYCAADIYPDWIYLLYGYWGQGTQVTVSS | low polyreactivity
2 | QVQLVESGGGLVQAGRSLRLTCAASGFTFADNTMGWYRQAPGKDRELVAAINDAGGTNYADSVKGRFTISRDNEKNTVYLQMNSLKAEDTAVYYCAADGRIYLTYHEMEYWGQGTQVTVSS | low polyreactivity
3 | QVQLVESGGGLVQAGRSLRLTCAASGSIFYYYAMGWYRQAPGNERELVAAISSGGRTYYADSVKGRFTISRENANNNVYLQMKSLKTEDTAVYYCAASGGSYSVGRYYYWGQGSQVTVSS | high polyreactivity
4 | QVQLVESGGGLVQAGSSLRLSCAASGGTFYINTKGWYRKAPGKERELVATITIVVSTKYADSVKGRFTISRDNAKNTVYLQMNSLKPEDTAVYYCAKDDVYRDSYLVFDGEMDYWGQGTQVTVSS | low polyreactivity
5 | QVQLVESGGGLVQAGSSLRLSCAASGSIFPVYAMGWYRQSPGKERELVAAISCIGGGTYYADSVKGRFTISRDNAKNTVYLQMNSLKPEDTAVYYCAAVPYTSEYDYWGQGTQVTVSS | high polyreactivity
6 | QVQLVESGGGLVQAGSSLRLSCAASGSTYAFYALGWYRQAPGKAMELVDAITSGGTTNYADSVKGRFTISRDNAKNTVYFQMISLKPEDTAVYYCNAYYLGWYRVRAVTGYDYWGQGTQVTLSS | low polyreactivity
7 | QVQLVESGGGLVQAGVSLPLICAASGFTIAYYTMGWYRQAPGKERELVAAISRRGSSTYYADSVMGRFTISRDNAKNTVDLQMNSLKPEDTAVYYCNKYSVLTPGYYYWGQGTQVTVSS | high polyreactivity
8 | QVQLVESGGGLVQAGVSLRLRCASSGFTFRPYAIGWYRQAPGKERELVAAITSGDSTNYADSVKGRFTISRDNEKNTVYLQMNSLKREDTAVYYCAADSTGRPSVSYDYWGQGTQVTVSS | low polyreactivity
9 | QVQLVESGGGLVQAGVSLRLSCAASARSFAWKAMVWYRQAPGKERELVAAITWSGGSTYYADSVKGRFTISRDNGKNTVYFQLNSLKQEDTAVYYCNKLYPYYATHTTRGLDYWGQGTQVTVSS | high polyreactivity
10 | QVQLVESGGGLVQAGVSLRLSCAASGFIFNIYAMGWYRQAPGKERELVAAISWRGGSTYYADSVKGRFTISRDNAKNTVYLQMNSLKPEYTAVYYCDVEDVWVGVFGDYDYWGEGTQVTVSS | low polyreactivity
11 | QVQLVESGGGLVQAGVSLRLSCAASGFIFVSYAMGWYRQAPGIERELVAAIDRIGGITYYADSVKGRFTISRDNAKNTVYLQMNSLKPVDTAVYYCAAAARYATVRVGREYYWGQGTQVTVSS | low polyreactivity
12 | QVQLVESGGGLVQAGVSLRLSCAASGFIFYWYVMGWYRHAPGKERELVAGISKNGTNTYYADSVKGRFTISRDNAKNTVYLQMNSLKPEDTAVYYCAAAKCRTKYDYWGQGTQVTVSS | high polyreactivity
13 | QVQLVESGGGLVQAGVSLRLSCAASGFTFAYYAMGWYRQAPGKERELVAAITSGGRTNYADSVKGRFTISRDNAKNTGYLQMISLKAEDTAVSYCAKYRRGGSRHYSVFNHDYWGLGTQVTVSS | high polyreactivity
14 | QVQLVESGGGLVQAGVSLRLSCAASGFTIKLYAMGWYRQAPGKERELVAAISSSGGSTYYADSVKGRFTISRDNAKNTVYLQMISLKPEDTAVYYCAARTRHVHYGYWGQGTQVTVSS | high polyreactivity
15 | QVQLVESGGGLVQAGVSLRLSCAASGGIFGNYAMGGYRQAPAKERELVAAINGGTSTYYADSVKGRFTISRDNAKNTVYLQMNCLKPEDTAGYYCAADWRYLYYALDYWGQGTQVTVSS | low polyreactivity
16 | QVQLVESGGGLVQAGVSLRLSCAASGGTFRPYAMGWYRQERGKERELVAAISYTGSTYYADSVKWRFTISRDNAKNTVYLQMNSLKPEDTGVYYCAKDFWYPPRFDYWGQGTQVTVSS | low polyreactivity
17 | QVQLVESGGGLVQAGVSLRLSCAASGLTFGAYAMGWYRQAPGKERELVAAINVSGGSTYYADSVKGRFTISRDNAKNTVYLQMNSLKPEDTAVYYCNAGLVLGGIFIPLYDYWGQGTQVTVSS | high polyreactivity
18 | QVQLVESGGGLVQAGVSLRLSCAASGLTFNYYDMGWYRQAPGKERELVAAISRSGTNTSYADSEKGRFTISRDNAKNTVYLQMNSLKPEDTAVYYCNADYYSRIVGVRIYDYWGQGTQVTVSS | low polyreactivity
19 | QVQLVESGGGLVQAGVSLRLSCAASGLTFPGYAMGWYRQATGKQRELVAAISRRGGSTYYADSVKGRFTISRDNEKNTVYLKMNSLKTEDTAVYYCNAVIRRYFVPSSYDYWGQGTQVTVSS | high polyreactivity
20 | QVQLVESGGGLVQAGVSLRLSCAASGNTFWVYAKGSYRQAPGKARELVAAMTRGGSTNYEDSVKGRFTISRDNAKNTVYFQMNSLKPEDTAGYYCAAESFIYFPYKMDYWGQGTQVTVSS | low polyreactivity
21 | QVQLVESGGGLVQAGVSLRLSCAASGRIFFPNGMGCYRQAPGKESELVATISRIGGSTYYADSVKGRFTISRDNAKNTVYLQMNSLKPEDTAVYYFAAQYSYGVYWTLPYGYNYWGQGTQVTVSS | low polyreactivity
22 | QVQLVESGGGLVQAGVSLRLSCAASGRIFHFYAMGCYRQAPGKERELVASITWRGGRTYYADSVKARFTISRDNAKNTVFLQMNSLKPEDTAVYYCAADFRSGFSSSTTPVQSDWGQGTQVTVSS | low polyreactivity

Row | Sequence | polyreactivity (PSR sort gate)
23 | QVQLVESGGGLVQAGVSLRLSCAASGRIFPTNAMGWYRQAPGKERELVAAIPVSGGSTYYADSVKGRFTISRDNAKNTVYLQMNSLKPEDTAVYYCAVDDRASVGSRLDHWGQGTQVTVSS | low polyreactivity
24 | QVQLVESGGGLVQAGVSLRLSCAASGRIFSPYAMGWYRQAPGKERELVAAIDWDGGGTYYADSVKGRFTISRDNAKNTVYLQMNSLKPEDTAVYYCAAETDLANGTSPSDYCGQGTQVTVSS | low polyreactivity
25 | QVQLVESGGGLVQAGVSLRLSCAASGRILHGYAMGWYRQAPGKEREFVAAITSSGGRTYYADSVKGRFTISRDNAKNTVYLQMNSLKPDDTAVYYCAADRPAYRTGDSKYDYWGLGTQVTVSS | low polyreactivity
26 | QVQLVESGGGLVQAGVSLRLSCAASGRISVFYTMGWYRQAPGKERELVAVNRTSGGRTNYADSVKGRFTISRDNAKNTVDLQMNSLKPEDTAVYYCAARVVRYGYKYYYWGQGTQVTVSS | low polyreactivity
27 | QVQLVESGGGLVQAGVSLRLSCAASGRTLPRYAMGWYRQAPGKEREFVAAITFGGDSTYYADSVKGRFTISRDNAKNTVYLQMNSLKPEDTAVYSCAAKSFRGQRFGYWGQGTQVTVSS | high polyreactivity
28 | QVQLVESGGGLVQAGVSLRLSCAASGSIFDFYAMGWYRQAPGKERELVATITASGGSTYYADSVKGRFTISRDNAKNTVYLQMNSLKPEDTAVYYCNADSVYWGQGTQVTVSS | low polyreactivity
29 | QVQLVESGGGLVQAGVSLRLSCAASGSIFDSNAMGWYRQAPGKERELVATISSVGSTNYADSVKGRFTISRDNAKNTVYLQMNSLKPEDTAVYYCARVVDAQGYYSAASGGYYWGQGTQVSVSS | low polyreactivity
30 | QVQLVESGGGLVQAGVSLRLSCAASGSIFGWYAMGWYRQAPGKERELVAGITRSGGSTYYADSVKGRFTISRDNAKNNVYLQMDSLNPEDTAVYYCNADLYRKRAWGSRDGSWGQGTQVTVSS | low polyreactivity
31 | QVQLVESGGGLVQAGVSLRLSCAASGSTFIRNAMGWYRKAPGKERELVAAISSGGASTHYADSVKGRFTISRDNAKNTVYLQMKSLKPEDTAVYYCSATHRWYYWPGIPAYDYWGQGTQVTVSS | low polyreactivity
32 | QVQLVESGGGLVQAGVSLRLSCAASGSTFKQYAMGWYRQAPGKERELVAAIDRGGSTYYADSVKGRFTISRDNANNTVYLQMNSLKPEYTAVYYCAARFVQYRYAFDYWGQGTQVTVSS | low polyreactivity
33 | QVQLVESGGGLVQAGVSLRLSCDASGSTFHYYVMGSSRQAPGKEREFVAAISRSGGNPYYADSVKGRFTISRDNAKNTVYLQMNSLKPDDTAVYYCAAALSAYVKWDYYYCGQGTQVTVSS | low polyreactivity
34 | QVQLVESGGGLVQAGVSLRLSYADSGPIFYKYVMGWYRQAPGKEREMDAAINRSGGTTYYADSVKGRFTISRDKAMNTVYLQMNRLKREDTAVYYCNATLPDYWRYYYYQCGDDYWGQGTQVTVSS | low polyreactivity
35 | QVQLVESGGGLVQALGSLRLSCVASGSTYDAYDMGWYREAPGKERELVAAITSGGSTYYADSVKGRFTISRDNAKNTVYLQMNSLKPEDTAVYYCAASNQWSSTYLTYGFYYWGQGTQVTVSS | low polyreactivity
36 | QVQLVESGGGLVQARGSLRLSCAASGFIFLYNAMGWYRQAPGKERELLAAITSSGGTTYYADSVKGRFTISRDNAKNTVYLQMNSLKPEDTAVYYCAARYTGRNGGSNTPEYDYWVQGTQVTVSS | low polyreactivity
37 | QVQLVESGGGLVQARGSLRLSCAASGFIFRDNAMGWYRQAPGKERELVAAISKSGGRTYYADSVKGRFTISRDNAKNTVYLQMNSLKPEDTAVYYCAKASRYWSLYYWGQGTQVTVSS | high polyreactivity
38 | QVQLVESGGGLVQARGSLRLSCAASGFNFRSYAMASYRQAPGKERELVAAINSRAGNTYYADSVKGRFTISRDNSKNTVYLQMNSLKPEDTAVYYCNAVRHTYGYYSCGQGTQVTVSS | high polyreactivity
39 | QVQLVESGGGLVQARGSLRLSCAASGFTFPQYAMAWYRQAPGKERELVAVISWSGSSTYYADSVKGRFTISRDNAKNTVYLQMNSLKPEDTAVDYCNTRKLYQVDYDYWGQGTQVTVSS | high polyreactivity
40 | QVQLVESGGGLVQARGSLRLSCAASGITFYFNAMGWYRQAPGKERELVAVITSGGSTNYADSVKGRFTISRDNAKNTVYLQMISLKPEDTAVYYCATDKSYSSWSAQYDYWRQGTQVTVSS | low polyreactivity
41 | QVQLVESGGGLVQARGSLRLSCAASGLTFTVDAMGWYRQAPGKEREFVAAISYSAGRTYYADSVKGRFTISRDNAKNTVYLQMNSLKPADTAVYYCAAATYYSIYDYWGQGTQVTVSS | high polyreactivity
42 | QVQLVESGGGLVQARGSLRLSCAASGNTFVRNVMGWYRKAPGKERELFAAITWRSVRTDYADSVKGRFTISLDNAKNTVNLQMNSLKPEDTAVYNCAAPSASRHGEYDYWGQGTQVTVSS | low polyreactivity
43 | QVQLVESGGGLVQARGSLRLSCAASGRIFKRYTMGWYTQAPGKKRELVATISSGDSTTYADSVKGRFTISRDNAKNTVYLQMNSLKQEDTAVYYCAAVWPGGSRRGDVVALNYWGQGTQVTVSS | high polyreactivity

From the nanobody polyreactivity screen of Harvey et al. (2022)
